Source: article PMC11417369, “DNA sequence and chromatin differentiate sequence-specific transcription factor binding in the human malaria parasite Plasmodium falciparum”

T1: SIP2 D1 (Plasmodium falciparum, UniProt C6KSN9 177-235)
T1 sequence: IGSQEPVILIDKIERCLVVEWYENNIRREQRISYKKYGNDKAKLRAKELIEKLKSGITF

B1: GTGCAC_site10455 (dsDNA)
DNA 1: AATATTCAATATAAAGTGCATTATTGTGGACCTAAT
DNA 2: ATTAGGTCCACAATAATGCACTTTATATTGAATATT
B2: GTGCAC_negctrl_site401 (dsDNA)
DNA 1: AAAAAAATTAAAAATAAAGAAAAAAAAAAAAAAAAA
DNA 2: TTTTTTTTTTTTTTTTTCTTTATTTTTAATTTTTTT
B3: GTGCAC_site10192 (dsDNA)
DNA 1: ATATTATTATATATAGTGCATATTATTATTTTTATT
DNA 2: AATAAAAATAATAATATGCACTATATATAATAATAT
B4: GTGCAC_site10234 (dsDNA)
DNA 1: TAAAACAAAAAAAAGATGCACTATTTATTTTATTAT
DNA 2: ATAATAAAATAAATAGTGCATCTTTTTTTTGTTTTA
B5: GTGCAC_site9718 (dsDNA)
DNA 1: TCTTTTTGCATGTGTGTGCGCACAAAATACACAAAA
DNA 2: TTTTGTGTATTTTGTGCGCACACACATGCAAAAAGA
B6: GTGCAC_site10774 (dsDNA)
DNA 1: ACGTTAAAATATTGGGTGCTAACACAATAAAAATAA
DNA 2: TTATTTTTATTGTGTTAGCACCCAATATTTTAACGT
B7: GTGCAC_site9453 (dsDNA)
DNA 1: TGTTTTATTTTATTAGTGCATTTTTATTTATAATAG
DNA 2: CTATTATAAATAAAAATGCACTAATAAAATAAAACA
B8: GTGCAC_negctrl_site386 (dsDNA)
DNA 1: AAGATAAACTTTTTTAATTAATTTAATTTTTTTTTT
DNA 2: AAAAAAAAAATTAAATTAATTAAAAAAGTTTATCTT
B9: GTGCAC_negctrl_site79 (dsDNA)
DNA 1: TTTTAAAAAAGAAAAAAAAAGGATCAGAGAAATATT
DNA 2: AATATTTCTCTGATCCTTTTTTTTTCTTTTTTAAAA
B10: GTGCAC_site10175 (dsDNA)
DNA 1: ACTTTTTTGAACAACGTGCACGTATTCATAACAAAA
DNA 2: TTTTGTTATGAATACGTGCACGTTGTTCAAAAAAGT
B11: GTGCAC_site10395 (dsDNA)
DNA 1: ACTTTAGAAATAGAGGTGCTATTTTTATTACCACAC
DNA 2: GTGTGGTAATAAAAATAGCACCTCTATTTCTAAAGT
B12: GTGCAC_site10440 (dsDNA)
DNA 1: TATTACACATATTATGTGCACATATATAATCAATAT
DNA 2: ATATTGATTATATATGTGCACATAATATGTGTAATA
B13: GTGCAC_negctrl_site53 (dsDNA)
DNA 1: TGAAAAATTACAAAAATAATAAAATGAAATAATAAA
DNA 2: TTTATTATTTCATTTTATTATTTTTGTAATTTTTCA
B14: GTGCAC_site9663 (dsDNA)
DNA 1: AAATAGTAAGAGATGGTGCGTTTCCTTTTTTTTTTT
DNA 2: AAAAAAAAAAAGGAAACGCACCATCTCTTACTATTT
B15: GTGCAC_site9588 (dsDNA)
DNA 1: AAAAAAAAAAATTCGGTGCAATGTAATTAATGTAAA
DNA 2: TTTACATTAATTACATTGCACCGAATTTTTTTTTTT
B16: GTGCAC_site10226 (dsDNA)
DNA 1: TTTTATGCGCAATAAGTGCATTTAAAATATATATAT
DNA 2: ATATATATATTTTAAATGCACTTATTGCGCATAAAA
B17: GTGCAC_negctrl_site373 (dsDNA)
DNA 1: AATAAATTAAATAAAAATGTTTAACATAAAATATGA
DNA 2: TCATATTTTATGTTAAACATTTTTATTTAATTTATT
B18: GTGCAC_site10359 (dsDNA)
DNA 1: TACACTTGTAATTGCGTGCACGAAGGATATATATAT
DNA 2: ATATATATATCCTTCGTGCACGCAATTACAAGTGTA
B19: GTGCAC_site9975 (dsDNA)
DNA 1: TGATTCACTATAGTAGTGCATATTATATATATATAT
DNA 2: ATATATATATATAATATGCACTACTATAGTGAATCA
B20: GTGCAC_site10335 (dsDNA)
DNA 1: ATCAAGCGCAATGTGGTGCGTAAATTTTGTATTATA
DNA 2: TATAATACAAAATTTACGCACCACATTGCGCTTGAT
B21: GTGCAC_negctrl_site205 (dsDNA)
DNA 1: TATAATTATTTTTTTCTAAATATTATAAGGTATTCA
DNA 2: TGAATACCTTATAATATTTAGAAAAAAATAATTATA
B22: GTGCAC_site9445 (dsDNA)
DNA 1: TCCTTTATTTTTAAAGTGCATATACATGTACATTAT
DNA 2: ATAATGTACATGTATATGCACTTTAAAAATAAAGGA
B23: GTGCAC_site10711 (dsDNA)
DNA 1: TAATAAAATATGTACGTGCACATAATTATACTAAAA
DNA 2: TTTTAGTATAATTATGTGCACGTACATATTTTATTA
B24: GTGCAC_negctrl_site536 (dsDNA)
DNA 1: TGAAAAAATATAAAATATAAAATAAAAAATATAAAA
DNA 2: TTTTATATTTTTTATTTTATATTTTATATTTTTTCA
B25: GTGCAC_negctrl_site471 (dsDNA)
DNA 1: GATTATCTATCGCTTGAATGAAATGAAATCATGCAA
DNA 2: TTGCATGATTTCATTTCATTCAAGCGATAGATAATC
B26: GTGCAC_site10256 (dsDNA)
DNA 1: AAGGAATGCATATAGGTGCTACACATAAAAATAAAA
DNA 2: TTTTATTTTTATGTGTAGCACCTATATGCATTCCTT
B27: GTGCAC_site9653 (dsDNA)
DNA 1: GTGTACTTTTAAATAGTGCATTTTACAATAATAAAA
DNA 2: TTTTATTATTGTAAAATGCACTATTTAAAAGTACAC
B28: GTGCAC_negctrl_site176 (dsDNA)
DNA 1: TTTAATTAATAATAATATAAATTGTTCTTTTTTTTT
DNA 2: AAAAAAAAAGAACAATTTATATTATTATTAATTAAA
B29: GTGCAC_site10531 (dsDNA)
DNA 1: AGTAATTATTTTAGAGTGCATAGTTTTTTAATAAAT
DNA 2: ATTTATTAAAAAACTATGCACTCTAAAATAATTACT
B30: GTGCAC_site9794 (dsDNA)
DNA 1: AAAAATATATATTCAGTGCATATAACAAAAATTATA
DNA 2: TATAATTTTTGTTATATGCACTGAATATATATTTTT
B31: GTGCAC_site9982 (dsDNA)
DNA 1: ATTGTTATTTATTGTGTGCGCATTAATACATACATA
DNA 2: TATGTATGTATTAATGCGCACACAATAAATAACAAT
B32: GTGCAC_site9697 (dsDNA)
DNA 1: GAACATTTATTGTGTGTGCACAATTCTTTTTTAACC
DNA 2: GGTTAAAAAAGAATTGTGCACACACAATAAATGTTC
B33: GTGCAC_negctrl_site525 (dsDNA)
DNA 1: TTTCTAAGAAAAAAAAAAAAAAAAAAAAAGATACAA
DNA 2: TTGTATCTTTTTTTTTTTTTTTTTTTTTCTTAGAAA
B34: GTGCAC_negctrl_site530 (dsDNA)
DNA 1: AATATATCAAAAATGATGACATAAATATATTAATTT
DNA 2: AAATTAATATATTTATGTCATCATTTTTGATATATT
B35: GTGCAC_site10484 (dsDNA)
DNA 1: AAATTTGCTTTACCAGTGCAAAAAAAAAAAAAAAAA
DNA 2: TTTTTTTTTTTTTTTTTGCACTGGTAAAGCAAATTT
B36: GTGCAC_site10227 (dsDNA)
DNA 1: TATACATATTTACAAGTGCATAATATTTTACAAAAA
DNA 2: TTTTTGTAAAATATTATGCACTTGTAAATATGTATA
B37: GTGCAC_site10446 (dsDNA)
DNA 1: ATGTATCCAATAGGAGTGCATAATTCTATTAACACC
DNA 2: GGTGTTAATAGAATTATGCACTCCTATTGGATACAT
B38: GTGCAC_negctrl_site504 (dsDNA)
DNA 1: TTTCAAGGATTTAATTTATGGAAACCTTCTTCATTT
DNA 2: AAATGAAGAAGGTTTCCATAAATTAAATCCTTGAAA
B39: GTGCAC_negctrl_site629 (dsDNA)
DNA 1: TTGTTTTCTTTTTCTTTTCTTTTTCTTTTTTCTTTT
DNA 2: AAAAGAAAAAAGAAAAAGAAAAGAAAAAGAAAACAA
B40: GTGCAC_site10538 (dsDNA)
DNA 1: TTATTATAATCATTAGTGCATATATTATTTTTATAT
DNA 2: ATATAAAAATAATATATGCACTAATGATTATAATAA
B41: GTGCAC_site10065 (dsDNA)
DNA 1: CTTAAAATATATTTAGTGCATATACTAATATATTAT
DNA 2: ATAATATATTAGTATATGCACTAAATATATTTTAAG
B42: GTGCAC_negctrl_site419 (dsDNA)
DNA 1: GAAGGAAAAGATACGATAAAATAAGATATTAATTTA
DNA 2: TAAATTAATATCTTATTTTATCGTATCTTTTCCTTC
B43: GTGCAC_negctrl_site453 (dsDNA)
DNA 1: AATAGGAAGACTATTTTGTATTTGATTTTTTATTCC
DNA 2: GGAATAAAAAATCAAATACAAAATAGTCTTCCTATT
B44: GTGCAC_negctrl_site410 (dsDNA)
DNA 1: TTATCTTAATTGTGATTATAAAGATATTCTTTCTAT
DNA 2: ATAGAAAGAATATCTTTATAATCACAATTAAGATAA

biological target: T1, SIP2 D1; assay: gcPBM; about 25 ug protein; PBS, 1% milk, 0.2 mg/ml BSA, salmon testes DNA, 0.03% Triton X-100; conditions: tags: N-terminal GST (pGEX-4T-1), kept; label: surface-attached array probe

In order of falling binding signal:
1. B26  9.67 ln median PBM intensity, better of two orientations
2. B4  9.6 ln median PBM intensity, better of two orientations
3. B27  9.56 ln median PBM intensity, better of two orientations
4. B15  9.5 ln median PBM intensity, better of two orientations
5. B20  9.46 ln median PBM intensity, better of two orientations
6. B1  9.41 ln median PBM intensity, better of two orientations
7. B7  9.34 ln median PBM intensity, better of two orientations
8. B14  9.3 ln median PBM intensity, better of two orientations
9. B19  9.26 ln median PBM intensity, better of two orientations
10. B31  9.22 ln median PBM intensity, better of two orientations
11. B3  9.16 ln median PBM intensity, better of two orientations
12. B5  9.06 ln median PBM intensity, better of two orientations
13. B37  9.02 ln median PBM intensity, better of two orientations
14. B29  8.98 ln median PBM intensity, better of two orientations
15. B23  8.95 ln median PBM intensity, better of two orientations
16. B6  8.87 ln median PBM intensity, better of two orientations
17. B18  8.81 ln median PBM intensity, better of two orientations
18. B30  8.79 ln median PBM intensity, better of two orientations
19. B10  8.77 ln median PBM intensity, better of two orientations
20. B35  8.74 ln median PBM intensity, better of two orientations
21. B11  8.7 ln median PBM intensity, better of two orientations
22. B36  8.65 ln median PBM intensity, better of two orientations
23. B22  8.63 ln median PBM intensity, better of two orientations
24. B16  8.59 ln median PBM intensity, better of two orientations
25. B32  8.57 ln median PBM intensity, better of two orientations
26. B40  8.55 ln median PBM intensity, better of two orientations
27. B41  8.52 ln median PBM intensity, better of two orientations
28. B12  8.5 ln median PBM intensity, better of two orientations
29. B9  6.69 ln median PBM intensity, better of two orientations
30. B13  6.68 ln median PBM intensity, better of two orientations
31. B17  6.67 ln median PBM intensity, better of two orientations
32. B24  6.67 ln median PBM intensity, better of two orientations
33. B2  6.66 ln median PBM intensity, better of two orientations
34. B8  6.66 ln median PBM intensity, better of two orientations
35. B25  6.65 ln median PBM intensity, better of two orientations
36. B33  6.64 ln median PBM intensity, better of two orientations
37. B39  6.64 ln median PBM intensity, better of two orientations
38. B43  6.62 ln median PBM intensity, better of two orientations
39. B42  6.61 ln median PBM intensity, better of two orientations
40. B34  6.58 ln median PBM intensity, better of two orientations
41. B44  6.56 ln median PBM intensity, better of two orientations
42. B21  6.55 ln median PBM intensity, better of two orientations
43. B38  6.53 ln median PBM intensity, better of two orientations
44. B28  6.5 ln median PBM intensity, better of two orientations
